This note sets out measurements from the supplement of paper PMC12042874.

± gives the uncertainty stated by the source.

The nature of the data set: amyloid nucleation score (Sup35N fusion, yeast selection) (log enrichment); library NNK3; higher = more nucleation; inactive = no reads after selection. The method, boiled down:
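Peptides of 20 random codons fused to Sup35N were expressed in psi-negative yeast, induced 24 hours with 100 μM copper sulfate, then grown 7 days at 30°C on medium lacking adenine and uracil. Input and output plasmid inserts were Illumina-sequenced. Nucleation score is the DiMSum log enrichment of output over input reads, centred on the mode score of non-aggregating sequences, excluding sequences with under 100 input reads. Random libraries had three technical output replicates.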
Regarding VIRPFVYGDNLVSSTTAMIF, the amyloid nucleation score result was “inactive”.

On to VIVELVCLVMFNVWVGKGLW, for which the amyloid nucleation score was -0.054 ± 0.31.

VIYISCFTVLLVFLVNTPLR came in with an amyloid nucleation score of 1.2 ± 0.11.

For the substance VKEPMVPITLLSSTSSLDGM, the amyloid nucleation score result is “inactive”.

In the case of VKFIYRLEQNEDSAQNSRMG, the amyloid nucleation score entry is “inactive”.

VKGQCHYYLLSQLSGSSPVI: the amyloid nucleation score result is “inactive”.

The substance VKISYDKSRHVCLCGFSSM registered an amyloid nucleation score of 2.37 ± 0.077.

For VKIYLSPTWEHIDRVYNCAL, the amyloid nucleation score was 1.59 ± 0.059.

On to VKLKNLSCKRLLRRHSACHR, for which the amyloid nucleation score entry is “inactive”.

Regarding VKLSSFCRSNNCWYMRHAFL, the amyloid nucleation score entry was “inactive”.

As for VKRGCCLVICWARFNVSEAH, the amyloid nucleation score result was “inactive”.

Turning to VKRVKMLAYPRHFLLMMSGK, the amyloid nucleation score entry was “inactive”.

Regarding VKVEPVRLLWTHVWKS, the amyloid nucleation score result was “inactive”.

With VKWTQE, the amyloid nucleation score result was “inactive”.

Consider VLCAYK, for which the amyloid nucleation score entry was “inactive”.

For the substance VLCGLARVKEVIASRRWECG, the amyloid nucleation score entry was “inactive”.

Take VLCHQCWCRKIWPMN: the amyloid nucleation score result is “inactive”.

Regarding VLCPFRLFMSNTYLTFAMSC, the amyloid nucleation score result is “inactive”.

As for VLCVETTCPVGDIMECCLLP, the amyloid nucleation score result is “inactive”.

Consider VLEMMWVD, for which the amyloid nucleation score was 0.144 ± 0.64.

With VLGVEECGYWLD, the amyloid nucleation score entry is “inactive”.

As to VLGYILMRLRLYKIQVDISG, the amyloid nucleation score entry was “inactive”.

In the case of VLMGRCLPRWLLYEELLVYV, the amyloid nucleation score entry was “inactive”.

On to VLMQSS, for which the amyloid nucleation score is -0.36 ± 1.2.

VLPCVMYNIHPQITCRR: the amyloid nucleation score entry is “inactive”.

Take VLRCTSPIES: the amyloid nucleation score result was “inactive”.

On to VLRTTECVQG, for which the amyloid nucleation score result is “inactive”.

The substance VLRVLLGFDKFTATISTPDG displayed an amyloid nucleation score of 0.323 ± 0.28.

As to VLRVMCRCDCNTGFAKRESV, the amyloid nucleation score entry is “inactive”.

In the case of VLSFRSRTSKNKFRGAQGVT, the amyloid nucleation score result was “inactive”.

As for VLTLIFFYFRISCICPFLL, the amyloid nucleation score entry was “inactive”.

Take VLYGTSASWSEFEFDHVIHV: the amyloid nucleation score result was “inactive”.

Turning to VMAHFWRGKLLRSYVDRWRG, the amyloid nucleation score result was “inactive”.

Substance VMDGFHKHIFFVVCTSRHNF had an amyloid nucleation score of 0.271 ± 0.77.

Regarding VMKHHALGLEEWPQYTSYAW, the amyloid nucleation score result is “inactive”.

As for VMMFSELGCCVLCGPLKDNM, the amyloid nucleation score was found to be 1.62 ± 0.06.

In the case of VMTAVRAD, the amyloid nucleation score result was “inactive”.

VMYNYARFRWFLCTDQ gave an amyloid nucleation score of 1 ± 0.2.

As for VMYWLYRINDSSQSFFSYFS, the amyloid nucleation score entry is “inactive”.

As to VNDWWVSGW, the amyloid nucleation score entry is “inactive”.

On to VNELSFSTSF, for which the amyloid nucleation score result was “inactive”.

Regarding VNFVSFRP, the amyloid nucleation score entry is “inactive”.

As to VNFWMMRHAGCCKVHNKLSV, the amyloid nucleation score result was “inactive”.

With VNLNKGLRWNYFGDDMKPHR, the amyloid nucleation score came out at 1.19 ± 0.073.

The substance VNLSFNCWFDVVCVSSRF had an amyloid nucleation score of 1.9 ± 0.07.

Consider VNLYGSRL, for which the amyloid nucleation score result is “inactive”.

VNNPVLFFQ: the amyloid nucleation score entry was “inactive”.

Consider VNRNFILSSLVH, for which the amyloid nucleation score entry was “inactive”.

VNTATCYQ: the amyloid nucleation score entry is “inactive”.

For the substance VNTEG, the amyloid nucleation score entry was “inactive”.

As for VNVDLPLARNHWYPSPIYMV, the amyloid nucleation score was -0.654 ± 0.84.

Regarding VPGELGALGQACLKEDFSKG, the amyloid nucleation score entry was “inactive”.

For VPGFLGLTLHLLRREHQQNH, the amyloid nucleation score result is “inactive”.

In the case of VPNDKVGKLRIMGREWVRSH, the amyloid nucleation score entry was “inactive”.

With VPNLEVSLKAFSSIVSFVRG, the amyloid nucleation score result is “inactive”.

Turning to VQHFRHQSASELV, the amyloid nucleation score result is “inactive”.

Consider VQIRAANLTYNRQCQSHLFS, for which the amyloid nucleation score entry was “inactive”.

On to VQISIDKAWMRTSTCSIGSK, for which the amyloid nucleation score result is “inactive”.

On to VQSSIESLPDPIFRYLQSIS, for which the amyloid nucleation score entry is “inactive”.

Turning to VRALNTAAWLSNTRCLGMDA, the amyloid nucleation score entry was “inactive”.

With VRARFHDGQF, the amyloid nucleation score is -1.05 ± 2.4.

As to VRCVGGHSHDHWETVWGVFG, the amyloid nucleation score entry is “inactive”.

As for VRDVDKMC, the amyloid nucleation score entry is “inactive”.

On to VREMGLTHFTASLYRGEMPG, for which the amyloid nucleation score result was “inactive”.

As for VRFCSEMVCLDYFSNIMHLG, the amyloid nucleation score entry is “inactive”.

For the substance VRFKRVYCSG, the amyloid nucleation score result is “inactive”.

Take VRFVSYRLVGSV: the amyloid nucleation score entry was “inactive”.

In the case of VRGTGVVDRLGLGRWDRPEG, the amyloid nucleation score result was “inactive”.

Consider VRHNLLGCLLGSFLGASSNR, for which the amyloid nucleation score is -0.306 ± 0.37.

Take VRHVITSSG: the amyloid nucleation score entry was “inactive”.

On to VRIFYMV, for which the amyloid nucleation score entry is “inactive”.

Turning to VRISMRDMVWSRFWLPVVLK, the amyloid nucleation score result was “inactive”.

As for VRLCRGS, the amyloid nucleation score result is “inactive”.

For VRNILRLNRFCWCKTLQKIA, the amyloid nucleation score result was “inactive”.

Turning to VRNWTDD, the amyloid nucleation score result is “inactive”.

For the substance VRPFPFTWSSSNKEV, the amyloid nucleation score result is “inactive”.

In the case of VRRHAF, the amyloid nucleation score result was “inactive”.

VRTLPDLLPINRKQMVKERM: the amyloid nucleation score entry was “inactive”.

Regarding VRVDDKSNCVTRRFKP, the amyloid nucleation score result is “inactive”.

For the substance VRVTLWYQTNMGIFEGHSRN, the amyloid nucleation score result is “inactive”.

Regarding VSGFERVHGKGSN, the amyloid nucleation score entry was “inactive”.

Substance VSGSEFLDFKQLVYTLDAAC displayed an amyloid nucleation score of 0.481 ± 0.35.

In the case of VSHFSSRHKRTEVRSGSPQT, the amyloid nucleation score result was “inactive”.

For the substance VSHNSCGQTAESLNNFKTWS, the amyloid nucleation score entry is “inactive”.

The substance VSHTSNTTYRWRMFIYWSAF gave an amyloid nucleation score of 0.104 ± 0.26.

As to VSKESILGGRCVM, the amyloid nucleation score result is “inactive”.

As for VSLFRSLGNLSFSSIWLPSP, the amyloid nucleation score result is “inactive”.

With VSLLMRASGSCLNMQVYSGF, the amyloid nucleation score was found to be 1.57 ± 0.11.

For the substance VSLPSVIKYNDS, the amyloid nucleation score entry is “inactive”.

As for VSLTGWSR, the amyloid nucleation score entry is “inactive”.

VSLYCVIWIR had an amyloid nucleation score of 1.22 ± 0.094.

In turn, VSMVPRNIWCEMFCQTHADI yielded an amyloid nucleation score of 1.26 ± 0.1.

Consider VSPMVALCCFCLKEMNFGVH, for which the amyloid nucleation score amounted to 2.92 ± 0.069.

Consider VSRSRER, for which the amyloid nucleation score entry is “inactive”.

For the substance VSSFWFCLS, the amyloid nucleation score entry is “inactive”.

Regarding VSSTVGMV, the amyloid nucleation score was determined as 0.175 ± 0.29.

In turn, VSVLYYLKY came in with an amyloid nucleation score of 0.132 ± 0.28.

On to VSYEWPSQMFRPRVPLALAT, for which the amyloid nucleation score entry is “inactive”.

For VSYGPA, the amyloid nucleation score result was “inactive”.

Turning to VSYKKDCMQTSLRLVITF, the amyloid nucleation score entry was “inactive”.

On to VTFKDMDTHGWVHLSIHVAE, for which the amyloid nucleation score entry was “inactive”.

As to VTGEYLRMAISGCRG, the amyloid nucleation score result was “inactive”.

As to VTGMFDSSLRRKMKVPVWAI, the amyloid nucleation score entry was “inactive”.

Regarding VTKGWQGLGGLMGGEVCPWV, the amyloid nucleation score entry was “inactive”.

Regarding VTLADEDGYKFLTLVKVLTY, the amyloid nucleation score result is “inactive”.

VTLMLSITSP: the amyloid nucleation score entry is “inactive”.

Turning to VTLSGCIDLVWVCGVT, the amyloid nucleation score stood at 2.01 ± 0.099.

Take VTMFFLFHMQLYFSSKILGF: the amyloid nucleation score result is “inactive”.

On to VTQSQRKASFMVCSYSTITR, for which the amyloid nucleation score result is “inactive”.

As to VTSYYSHISYVTL, the amyloid nucleation score entry was “inactive”.

For the substance VTVSAQPAIK, the amyloid nucleation score result was “inactive”.

In the case of VVCELCGSYYYIHCWDCNAS, the amyloid nucleation score was found to be 2.75 ± 0.069.

Regarding VVCGANHLRIFFVNRVMWD, the amyloid nucleation score result is “inactive”.

VVDCLFLSEPCYVGFRWVIE: the amyloid nucleation score entry was “inactive”.

In turn, VVDIKNLYTCLTFCHKYGLN yielded an amyloid nucleation score of 0.988 ± 0.12.

With VVDNRNLSTCFYFRCVDWCQ, the amyloid nucleation score result was “inactive”.

VVEIMDLS: the amyloid nucleation score entry was “inactive”.

With VVFENLDRAFVYRRLDPIRC, the amyloid nucleation score entry was “inactive”.

Regarding VVFGHAFYVTSHKTVLCSFG, the amyloid nucleation score entry was “inactive”.

VVIHRSSSISGT: the amyloid nucleation score result was “inactive”.

In the case of VVILHCKTYAMASRWYGYRG, the amyloid nucleation score was -0.003 ± 0.81.

Take VVKAFYRARELGFRAGLRTD: the amyloid nucleation score result is “inactive”.

As to VVLCLFFLLDIFSTGKVYIK, the amyloid nucleation score entry was “inactive”.

For VVLDSVVWGFDELSRLMSGA, the amyloid nucleation score result was “inactive”.

For VVMKGTRMVKVKERGSGKDY, the amyloid nucleation score entry was “inactive”.

In turn, VVNILW returned an amyloid nucleation score of 1.82 ± 0.1.

For the substance VVRFFLRTRTEGGYTWVLK, the amyloid nucleation score result was “inactive”.

With VVRYDEGVVLNSRFLLSPGW, the amyloid nucleation score entry was “inactive”.

For the substance VVSVLLDTI, the amyloid nucleation score result is “inactive”.

As for VVTVARERYIVF, the amyloid nucleation score entry is “inactive”.

With VVTVGVMT, the amyloid nucleation score result was “inactive”.

Turning to VVWLSNSEWLRYLKDG, the amyloid nucleation score result is “inactive”.

Regarding VWFLLPRGLRCV, the amyloid nucleation score result is “inactive”.
